Earlier results, collected in PMC3437440.

Target: IgG1 Fc Fc (Homo sapiens) [IgG part: P01857]

Chain of FcγRIIIa (Val158 variant) (P08637 17-254, change not shown): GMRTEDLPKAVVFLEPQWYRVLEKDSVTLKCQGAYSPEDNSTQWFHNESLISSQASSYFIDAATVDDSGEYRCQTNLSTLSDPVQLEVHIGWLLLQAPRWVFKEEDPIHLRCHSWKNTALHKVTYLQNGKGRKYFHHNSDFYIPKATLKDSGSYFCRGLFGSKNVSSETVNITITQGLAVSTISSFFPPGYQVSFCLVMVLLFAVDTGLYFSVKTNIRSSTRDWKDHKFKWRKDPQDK

Kd: 100 nM
Substance: FcγRIIIa (Val158 variant) (from UniProt P08637)
